Assay: yeast display, Sf9 membrane polyspecificity reagent, FACS + sequencing; frameworks hold sequencing errors
Procedure, shortened: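 Galactose induction of a Saccharomyces cerevisiae BJ5465 synthetic nanobody display library ran 36–48 hours. The cells were then stained for 1 hour at 4 °C with 10% biotinylated, detergent-solubilized Sf9 membrane reagent, pulled down on streptavidin microbeads and FACS-sorted into low and high (top ~1%) gates on expression and reagent-binding fluorescence. Labels for polyreactivity follow the gate of origin.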

QVQLVESGGGLVQAGGSLRLSCAASGRIFLGNAMGWYRQAPGKERELVAAIDASGGSTYYADSVKGRFTISRDNAKNTVYLQMNSLKPEDTAVYYCNAEPRYYSGGHGYDYWGQGTQVTVSS
polyreactivity (PSR sort gate): low polyreactivity

QVQLVESGGGLVQAGGSLRLSCAASGRIFLGNAMGWYRQAPGNERELVADITTDGSTYYADSVKGRFTISRDNAKNTVYLQMNSLKPEVTAVYYCAAGEHPSFRSSYKYDYWGQGTQVTVSS
polyreactivity (PSR sort gate): low polyreactivity

QVQLVESGGGLVQAGGSLRLSCAASGRIFLGNVMGWSRQAPGKERELVAAISSGGSTNYADSVKGRFTISRDNAKNTVYLQMNSLKPEDTAVYYCAAYFVRDWKLYYYWGQGTHVTVSS
polyreactivity (PSR sort gate): low polyreactivity

QVQLVESGGGLVQAGGSLRLSCAASGRIFLHYAMGWYRQAPGKERELVAAISRSGGSTYYADSVKGRFTISRDNAKNTVYLQMNSLKPEDTAVYYCAAAYPFKTTEGYFYWGQGTQVTVSS
polyreactivity (PSR sort gate): high polyreactivity

QVQLVESGGGLVQAGGSLRLSCAASGRIFLINALGCYRQAPGKERELVAAIRTGGNTYYADSVKGRFTISRDNAKNTVYLQMNSLKPEDTAVYSCAADRIYPYYRWSGAHRSDVDYWGQGTQVTVSS
polyreactivity (PSR sort gate): low polyreactivity

QVQLVESGGGLVQAGGSLRLSCAASGRIFLINGMGWYRQAPGKERELVAVITQSGGTYYADSVKGRFTISRDNAKNTVYLQMNSLKPEDTAVYYCAASSYGASRGYWGQGTQVTVSS
polyreactivity (PSR sort gate): high polyreactivity

QVQLVESGGGLVQAGGSLRLSCAASGRIFLKYSMGWYRQAPGKERELVAAISRGGSTYYADSVKGRFTISRDNAKNTVYLQMNSLKPEDTAVYYCAATSYRRTGYNYWGQGTQVTVSS
polyreactivity (PSR sort gate): high polyreactivity

QVQLVESGGGLVQAGGSLRLSCAASGRIFLNYAMGWYRQAPGKERELDAAISRRGASTYYADSVKGRFTISRENAKNTVYLQMNSLKPEDTAVYYCATVPGKSGDYWGLGTQVTVSS
polyreactivity (PSR sort gate): high polyreactivity

QVQLVESGGGLVQAGGSLRLSCAASGRIFLNYDMGWYTQAPGKERELVADISISGSTDYADSVKWRFTISRDNAKKTVYLQMNCLKPEDTAVYYCATSFYVSDYYVPYEMGYWGQGTQVTVSS
polyreactivity (PSR sort gate): low polyreactivity

QVQLVESGGGLVQAGGSLRLSCAASGRIFLQYAMGWYRQAPGKERELVAGISSRGGSTYYADSVKGRFTISRDNAKNTVYLQMNSLKPEDTAVYYCAAQTKRIRYVYKHYYWGQGTQVTVSS
polyreactivity (PSR sort gate): high polyreactivity

QVQLVESGGGLVQAGGSLRLSCAASGRIFLRNAMGWYRQAPGKERELVAAISSSGGRTYYADSVKGRFTISRDNAKNTVYLQMNSLKPEDTAVYYCNARWHGSFDYWGQGTQVTVSS
polyreactivity (PSR sort gate): low polyreactivity

QVQLVESGGGLVQAGGSLRLSCAASGRIFLRTAMGWYRLAPAKERELVASIDSSGGSAYYADSVQGRFTISRDNAKNTVYLQMNSLKPEDTAVFYCNADAYGTPEFTSYAVRYDYGGQGTQVTVSS
polyreactivity (PSR sort gate): low polyreactivity

QVQLVESGGGLVQAGGSLRLSCAASGRIFLRYAMGWYRQAPGKERELVAAIDFSAGSTYYADSVKGRFTISRDNAKNTVYLQMNSLKPEDTAVYYCATRLGVLYDYWGQGTQVTVSS
polyreactivity (PSR sort gate): low polyreactivity

QVQLVESGGGLVQAGGSLRLSCAASGRIFLRYAMGWYRQAPGKERELVAVITWSGGSTNYADSVKGRFTISRDNAKNTVYLQMNSLKPEDTAVYYCAVDNSGRSWPYDYWGQGTQVTVSS
polyreactivity (PSR sort gate): low polyreactivity

QVQLVESGGGLVQAGGSLRLSCAASGRIFLRYAMGWYRQAPGKERELVAVITWSGGSTNYADSVKGRFTISRDNAKNTVYLQMNSLKREDTAVYYCAVDNTGRSWPYDYWGQGTQVTVSS
polyreactivity (PSR sort gate): low polyreactivity

QVQLVESGGGLVQAGGSLRLSCAASGRIFLRYVMGWYRQAPGKERELVAAIRSNGGSTYADSVKGRFTISRDNAKNTVYLQMNSLKPEDTAVYYCAARYFNTKGSFVVGYGYWGQGSQVTVSS
polyreactivity (PSR sort gate): high polyreactivity

QVQLVESGGGLVQAGGSLRLSCAASGRIFLSNAMGWYRQAPGKERELVAAISWTGGSTYYADSVKGRFTISRDNAKNTVYLQMNSLKPEDTAVYYCAASTVGQTYSDYVDTYDYWGQGTQVTVSS
polyreactivity (PSR sort gate): low polyreactivity

QVQLVESGGGLVQAGGSLRLSCAASGRIFLSNGMGWYRHAPGKERELVAGITTGGGDSTYYADSVKGRFTISRDNAKHTVYLQMNSLKPEDTAVYYCNADSVYAGFDYWGQGPQVTVSS
polyreactivity (PSR sort gate): low polyreactivity

QVQLVESGGGLVQAGGSLRLSCAASGRIFLSYAMGWYRQAPGKERELVAAITDNGGDTYYADSVKGRFTISRDNAKNTVYLQMNILKPEDTAVYYCAVDGGEFSSYGYWGQGTQVTVSS
polyreactivity (PSR sort gate): low polyreactivity

QVQLVESGGGLVQAGGSLRLSCAASGRIFLTYAMGWYRQAPGKERELVAAISTSGTRTYYADSVKGRFTISRDNAMNTVYLQMNSLKPEDTAVYYCAREKYNYRTYEYWGQGTQVTVSS
polyreactivity (PSR sort gate): high polyreactivity

QVQLVESGGGLVQAGGSLRLSCAASGRIFLVYGMGWYREAPGKERELVASITYRGGSTYYADSVKGRFTISRDNAKNTVYLQMNSLKPEDTAVYYCADDGAFYASTEMDYWGQGTQVNVSS
polyreactivity (PSR sort gate): low polyreactivity

QVQLVESGGGLVQAGGSLRLSCAASGRIFLVYVMGWYRQAPGKERELVAAISASDGSTYYADSVKGRFTISRDNAKNTVYLQMNSLKPEDTAVYYCAEWGYSLDSNSYRELNYWGQGTQVTVSS
polyreactivity (PSR sort gate): low polyreactivity

QVQLVESGGGLVQAGGSLRLSCAASGRIFLYAMGWYRQAPGKERELVAAINSGGSTNYADSVKGRFTISRDNAKNTVYLQMNSLKPEDTAVYYCAAEVLYWYRYYYWGQGTQVTVSS
polyreactivity (PSR sort gate): low polyreactivity

QVQLVESGGGLVQAGGSLRLSCAASGRIFLYYAMGWYRQAPGKERDFVAAITYIGGSTYYADSVKGRFTISRDNAKNTVYLQMNSLKPEDTAVYDCATDGYRIDVYHPVYRYDYWGQGTQVTVSS
polyreactivity (PSR sort gate): low polyreactivity

QVQLVESGGGLVQAGGSLRLSCAASGRIFNEYAMGWYRQAPGKERELVAAITYSDDSTYYADSVKGRFTISRDNAKNTVYLQMNSLKPEDTAVYYCNADTPVWDGHAYPVDYWGQGTQVTVSS
polyreactivity (PSR sort gate): low polyreactivity

QVQLVESGGGLVQAGGSLRLSCAASGRIFNKNAMGWYRQAPGKERELVAAITYSGGSTYYADSVKGRFTISRDNAKNTVYLQMNSLKPEDTAVYYCARDLYYVYSFAPYRYEYWGQGTQLTVSS
polyreactivity (PSR sort gate): low polyreactivity

QVQLVESGGGLVQAGGSLRLSCAASGRIFNLNAMGWYRQAPGKERELVAAISKSGTRTYYADSVKGRFTISRDNAKNTVYLQMNSLKQEDTAVYYCAAEALYYDRLGWVYLRYDYWGQGTQVTVSS
polyreactivity (PSR sort gate): high polyreactivity

QVQLVESGGGLVQAGGSLRLSCAASGRIFNLYDMGWYRQAPGKERELVAAIRIGDRTYYADSVKGRFTISRDNAKNTVYLQMNSLKPEDTAVYYCNREYLSNRDKRFYYWGQGTQVTVSS
polyreactivity (PSR sort gate): low polyreactivity

QVQLVESGGGLVQAGGSLRLSCAASGRIFNLYGMGWYRQAPGKEREFVATITWSGVTTYADSVKGRFTISRDNAKNTVYLQMNSLKPEDTAVYYCAADYRYRTRWYDYWGQGTQVTVSS
polyreactivity (PSR sort gate): high polyreactivity

QVQLVESGGGLVQAGGSLRLSCAASGRIFNNYAMGWYRPAPGKERELVAAISTSGGSTYYADSVKGRFTISRDNAKNTVYLQMNSLKPEDTAVYYCNAVSRKRHYAPSYDYWGQGTQVTVSS
polyreactivity (PSR sort gate): high polyreactivity

QVQLVESGGGLVQAGGSLRLSCAASGRIFNPNAMGWDRQAPGKERELVAAISTSGDSTYADSVKGRFTISRDNAKNTVYLQMNSLKPEDTAVYYCAATSGRRTTRWGRYGYWGQGTQVTVSS
polyreactivity (PSR sort gate): high polyreactivity

From the nanobody polyreactivity screen of Harvey et al. (2022)
